Reference: patent US20100184651

Tested on: VIP-BH3 BID fusion protein
Sequence (chain, as listed by the source): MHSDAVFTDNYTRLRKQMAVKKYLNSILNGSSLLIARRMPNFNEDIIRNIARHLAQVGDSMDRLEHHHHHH

recombinant human cathepsin D, sequence (chain, as listed by the source): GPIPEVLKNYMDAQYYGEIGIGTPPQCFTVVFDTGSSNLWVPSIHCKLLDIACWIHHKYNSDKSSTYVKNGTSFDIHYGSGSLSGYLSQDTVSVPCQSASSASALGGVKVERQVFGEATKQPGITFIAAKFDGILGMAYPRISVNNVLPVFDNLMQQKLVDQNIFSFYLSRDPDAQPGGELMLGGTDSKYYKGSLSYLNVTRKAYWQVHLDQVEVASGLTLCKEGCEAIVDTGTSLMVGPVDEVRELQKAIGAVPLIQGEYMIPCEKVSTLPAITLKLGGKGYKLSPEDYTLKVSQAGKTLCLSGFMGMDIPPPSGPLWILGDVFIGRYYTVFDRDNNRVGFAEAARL

recombinant human cathepsin D
cleavage of fusion protein by cathepsin D at ˜400:1 (w/w), followed by mass spectrometry: The first cleavage occurred at the linker by around 30 minutes of treatment with the protease
